From the domain aggregation screens of Martell et al. (2025)

Assay: soluble fraction after stress (log2 fold change); higher = more stays soluble; pooled small domains, quantitative proteomics
Settings: stress: 50 degC
Outline: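 Custom libraries of small protein domains were pooled and measured in a high-throughput format, with quantitative proteomics as the read-out. Each library was stressed at 50°C. The value is the log2 fold change in the amount of each protein that stays soluble after stress, used as a measure of aggregation propensity; higher values mean more of the protein stays soluble.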

Sequence | soluble fraction (log2)
HMDGDVAVKGGDGVLEVRLANAANVRVYNLAGRLMADYTGTELHMPLPKGVYMVVAGDNRTKVVV | 0.074
HMAAHWANFLEALRAGRARRVLVARGVEGWLLKELERLGAPYTLVPRIELDTLLRTTHHQGIAAEVE | -0.692
HMIEDMQQYIKEIRQMVSGRLDMTRNLEDEEIRDTIAELVAEESRKQYMTLTEKREVIEGVFNSMR | -0.0273
HMAAAQILRAAVLRVPAEETMRFVTETPELRRYLGASLGPTAAIVRPGQEQNLAAALQSHGILVEFDE | 0.0258
HMKNTADRVYENLFHMLVSGDYAPGDRIPSEHELKERFNVSRNTIRAALNRMNALGIIETRQGDGTYLKG | -0.243
HMFGDQMQSYLSRLSQIDVDIIALKYGDNFTYREIGLILEMSEDSVRQRAVRARKKLETMIQKG | -3.1
HMASMHDGVAARLRAMVFERELAPGEFIDERRLAQQWQISRTPLREALKVLAAEGLVELVPRRGARVV | -0.298
HMGQKMLTIELQEKVNKMPDNLASYDLKLSADGMSLIYKYSLKSERTGITALLQELKNAGLVMRDLKTEQ | -0.0274
HMSGEVLTAVVPETASGERLDKVLPQIFPPYSRSQLQTWLKEGRVTLDREIPAARLAVIGGETLRLEVPSL | -0.145
HMGIVAPGTLKHLHAVGNSYYPDWETKRHELVTAVTKGRTSSSKELYEAEANRLITRIEELLMTAAQSV | -0.0132
HMRKIEDVLRLHAQGMSTRRIALATGVGKTTVIEYLRRAAVAGLSWPLPEGLDEEALERRVFPPPP | -1.45
HMDATFKVRVSVPDLNIRSGPGTNYAATGRFTGVGVFTITAVQSGQGSSSGWGKLKSGAGWIALDYAKR | -2.39
HMGDVATVKLDNNGLLNMRKSDARGADIVARIPNGTVVQVLNRETEWTQVRYDGKEGYVMSSFLQFAE | 0.199
HMQDELSSSVIEEAVVVLLLRAANIDGKKDEQEIEAIKRLIIQQFNYDEEKADILITSASEK | -0.218
HMDADGEPIKLDQIGISHLSFTVADVKSLGEELVAKGVKLAAPMEAFTSPEGRISSIFVYDPDGILLQFDD | -0.104
HMSFVDFYGLFTTELQRLAELPVTADELIKNTGLHKSQLTDWLKRAEEDGVVKKLNRPVRYQVEKK | -0.987
HMVSEASELTDTINKIGSLAQALVGANKLSKTDLVGIIKKYHTSANYNSITDIGVAKNILAELEAKN | 0.0739
HMKGKDLQDAVVTVVGGAENWNAIRAWAQASASDSEKREINAAFQSGKLMATMMAERLALAYQQSG | -0.0897
HMHSRLEDIPGIGPRRRAMLLRHFGGLAELKAAGVEEIARVEGINMALAQRLWRALHGVPDPT | -0.339
HMIGIEALAGEIDRVRQVLTGGGGLSDVQLFSQLKALNEIKAALGASPDPRAPELVQRVDQLLEAAFRS | -0.0467
HMEPELSVDMKPLDGLLLAIKKELQAAQMYTRLARASADAEQKMVFEQLANMEKGHKARLEDIYT | -0.0279
HMDKKEFGKRLKNLRIRNKMSQQAMADSLGYTSRSTINKIEEGINEMSYDKIVRLMELYGLSRPDLGLEPI | -0.154
HMSSFRDISGTVYVKASAANLRSEPNTSSLIVDTLYYGASLQRISTNDIWTKVKTGNGQIGFMDNSLFQT | -2.23

Sequence | soluble fraction (log2)
HMAKLGITQREQEVLQLLVTGKTYKEIAAELFISLPTVKTHVSNIYSKAKVRNRLELSNLINYI | -2.73
HMINIGANIRAIRKQKNIKQVDLVRLLQLEGVEITRETLVKIESGVQHIKASQLRGIRDALGTTYDELL | -2.95
HMDNVINDGMQVRFTGNVDINGTPLKIYDRIYTAEGISDDTVVLMLGNDVYARVYLSDVVPAD | -0.405
HMGPNSVPDLRGKSLRQAMKMVNDLELKAIFEGEGIVVGQVPAPGKPVPETKILKITLSLEPY | -0.109
HMKTMTTIRKGSRGDTVATLQRKLNLIADGIFGPITDEAVRDFQKSHGLAVDGIVGPKTWAALGVGS | 0.0423
HMHSFFGDNIKKLRTAKKMSQEQLADIFGITKAGISYWETGRSEPNFATVQKLADFFGVTTSDLLGEA | -0.194
HMSNETKSAILNFAEKHHDFNIDDLFESLSKSMDINRSSLLWHLFKLVNSNVLIRTGRGMYAKV | -1.89
HMNNWYESSIKSLVEEYFREHGFSVVFDSSEFWDVFIEKYHKQIPSSQIALFDQVAAEARSYAFNKK | 0.116
HMQTAAANPSPESILQAREAAGLSQSEAGALIYSGLRSWQHWEWGTRRMHPGLFELFLKKTGQI | -1.7
HMKAFTKKELQDLVLNIFRASPTTNYNYKQLYKLIRGKDPEIKTLIIAVLLGLEKNGSILQMRPGKYKFS | 0.593
HMTNLKALRESKGVSQQTVADYLGITRQAYGNYETGKRQADYAALLRLAAFFGVSVDALLQP | -0.299
HMPRPLVAPMPGLIVRVTAVVGDSVDAGQGLVVMEAMKMENELRTTTAGVVKTVHVQPGVAVEKGALLIEF | -0.893
HMGMFNENLRFLRQKRQMSQQAFASILGIPRTTYSEYEKGNTEPNLKLLIRLSELLDVSLDNLISDDLTHN | -2.44
HMNPGHAERGKEIVEVFLRNNGELSMREIAEKSNITITQARRRVNKLLDQGIVEATAPVQSRNRKYRIK | 0.134
HMSLPNNLIEQLQDPEPKARRRAVRRLAATRDPSAIPLLRNVYLQDGDDRVRDAAEAALVQFRAMQHN | 0.0586
HMEEPEFEPYVVRLTAIALNVRTGPGTQYPVAMVIRGGGAFTIVAEENGFGLLKSGAGWIMLQHTERV | -0.434
HMGMKTSQKLARQREIVRLIRAQTIRTQAELADALRERAFPVSQPTLSKDIAELGLIKVPLPDSGYRYQLP | -0.378
HMAVTFPYTAYATDAVRLRERPSSSADVLAVIRKGDAVLVTGTDGNYAIVDYEGKRGYVVSSFIAT | -0.317
HMNREMLVHAIGQLKEKYASALELKYWHGFTEREIAAFLNISEKAANSRLVRGRVMLRKLLE | 0.131
HMGLVVIGTEAGYPAEKAGILAGDRIRKLNGAAVPDYDTFLTALAARKGEPSAIELERDGKTLEVTVSPL | 0.0119
HMGVKHKHKGAGELLAALRTMFPNSSVSTLRKMLTQGRVVLNGEVVHRAKHELTDGDTIEVLERQRAER | 0.209
HMADDFISTLFSEGIIIDTEVKQFAERQGSPLQFVRHIASNLPEPRDIITMGEVRSVMREGA | -0.149
HMDENMQRYNTMEEIKKEFPYAEDTVRKLIAMGAIRGGGKVDANGDPADMDLSRDMLRMMVFNDRAGAYG | 0.544

Sequence | soluble fraction (log2)
HMKRNLESVLDHIEGIGPKRRKALYKHFGNLDAMRVAELEELESVEGMNKKAALAVYEFFRRNS | 0.254
HMYYSERILTILEERGISPYRVSKETGISQSVFSNWKRKPTSRITAANLERLADYLGLPVEVLTG | -3.45
HMKNTFGLTEREMEVLALIVDGLSNPEIAEKLFITRATAKAHVHSILQKLYVDDRTQAAVTAMREGL | -1.23
HMTSSQLYLIEEDMEGERLDAFLAEVIADLSRTAIKDLISNGRVLVDGQARKPSYRVKEGEQVLIHVPEAR | -0.0195
HMHKYQVGETVYYTSPTFGRAAATGSYIVVKLLPSEGDDYQYRIKSSGEAFERVAKESQLDR | -0.734
HMHLIPRESTYEIDGRRFVVDSVNLDFGKVSLQDITFRNATGFPIFRSESIEFMRRLVEISEAQRIAEL | -0.00889
HMPFREGDEVFVELVEPHMYNEDDAVAKLDGYVVAVRGAAGLVGQKVLVRIERVGRSSAEATLVA | 0.109
HMNVEKLREMYPEGTKIILQEMQGESRMAKGLKGTVTHVDDAGQIHMKWENGSSLVLNVEVDTFKKIE | 0.0915
HMSATEPVHFDPNKSPEDMTVEELQAGILAKMANNGPVSDQMKKTVNENIWHDSLVNWLKSF | 0.0373
HMANLAQITKTNAVALALKDVGAYNSEDLMKFIDLDKVVLGEDGKPQLEDTINSLKESSPYLFQ | 0.0767
HMNSTEQQTERFLATLTSLGGNAGNQRLQEALGWQGSTYQRIKQHLLDEGRIRTGRGRGGSVALSEATAT | 0.143
HMKIQTYEDFRNAYPDIQGSLFGSAERYKTDLDWGDVAAKYDADEELKNVRNIFQLVRRYEQKYS | 0.332
HMEWGEADFVRLDEALATLRTLSPRQAEVVDLRFFSELSLEETAATLGLSLATVKRDWSVARLYLQRALS | 0.0743
HMNMSVGAALRRRRNELGMTLRELADEAELTSGFLSQVENDRVSPSLKSLGRIAEVLRIPLFQLLS | -1.29
HMSVPEDLYFRELEVEGNKVRISGIASTNNRVSALMRNFDQSEWFRDPSLIKVESKSPGVNEFEIVMTRI | 0.0509
HMHPRDREENKYLLLRGERIYEESIGEKRLYVEAALHKYEKALSSYDTGLIDEAKEEFKKFLEEIEEA | -0.0765
HMGEIVVPDLIGKSLTEATRILSDSTLTVGKVNYQISSTLLPNTVLDQYPAPGNKLNSGNTVDLFITKE | -0.0436
HMAKVSVNIILKDGVDQTTFVNDVTSNTEVDLKNQLISLPQMVVLSVEEDYINTLKSHSSISILELDE | -0.00499
HMSNEITVPDLSGMSLEELETILSDRSLSYEIIDSIYNSTAKKGTVSSQDPLPDAKVKSGRTIYITVVSKL | -1.5
HMPANVELLRTFTNKTGTKIKARIVAVSDNKVKLIRDDSKKFIVPIDSLSEEDQKYLKDWIANEVGEQ | 0.0498
HMDEIDYSKYSITTSNRIINIDGVQSKVELFDVSGRSIQSTMVTGKFSSRPLNAGFYIIHVDGYSVKVSV | -0.889
HMTVTMADISQAYNEKRYLTTISLSNTYLTFAKPTTELLSIRYRTYFIIGKYAESLTEIAKL | -0.173
HMRSLATFEEEKIALRFWNYLQSEGIKSTLEEEGPRDWVIWVIDEEKIPSATQSLEKFNLNPDDPAFSN | -0.438
